# Source: the DeepSol protein solubility set
# Assay: soluble on expression in E. coli; label from the status in PepcDB or PDB records
row,Sequence,soluble on expression in E. coli
1,MSLDPIEFIQKSASSIASTMHKLKLKYNPFSEKPIRGNTKFFVGRVSELREIGEILGSALHGSVANAAIVGTKGIGKSSMLNIIYYATKKQGHWVVEMTASQVTPRQFLIQLLYNILTENIITMSGTIKSDYMEHSSRILDMYRKLNNYGDKVPIHYPRERIERDLEYLINEVKSPDKLCIILIDEADQFAKKSCLSLLQFFHSFLYEEGILTFMAGSPTLMDDLTKISPPIKDRIPKIINMPPLSKDESYDLIRRRLEDAHIDGAEEFEPFTEEAIHKIVEECDGIPRKIIMTCSESISIAIRKGLTKIDEKVVKEAMHSLGISVGHQILNHLTPAQSEIVRAMAELGGSATVTQLAEYLKKSPSTIGTHLSDIYEMGYIYKEREGNNVYYKLSKELRDVLIGEDDEGHHHHHH,soluble
2,MKKREVIASVKDEKLVKKRRNEMIKGAISLFKQKGFHQTTTREIAKASGFSIGTLYEYIRKKEDVLYLVCDRIYDEVRERTEQDLGAHHGTIEGLRRAIAHYFRVVDELDDEVLVMYQEVKALSKESLPYVLNKELDMAAIFEHILRACVENGALQLSESEIRLFAHNIVVLGQMWAFRRWVLRKMYTLDEYIELQTEFLLKGIMEKQRV,not soluble
3,MTGSNSHITILTLNINGLNSAIKRHRLASWIKSQDPSVCCIQETHLTCRDTHRLKIKGWRKIYQANGKQKKAGVAILVSDKTDFKPTKIKRDKEGHYIMVKGSIQQEELTILNIYAPNTGAPRFIKQVLSDLQRDLDSHTLIMGDFNTPLSTLDRSTRQKVNKDTQELNSALHQADLIDIYRTLHPKSTEYTYVRVRDGHVSQSKIDHIVGSKALLSKCKRTEIITNYLSDHSAIKLELR,soluble
4,MKKVQPLNPEQVKRFLETAKQDPLYPAFLLALGTGLRRGEILGLRWQDLDLQKGILQVRQSLIRTREGLKFEEPKTEKSRRQIPLPPSVVAALKRHKAWVNQNKLILGPDYEDHDLVFPVENGRPRDPKGFAEYFNRLLDKAGLPHIRLHDLRHTHATLLLLEGVHPKVVQERLGHSTVSITLDIYSHILPGLQEKAAERIDGLLQPKENPSPKEGTIKLEHHHHHH,soluble
5,MTNIRVAIVGYGNLGRSVEKLIAKQPDMDLVGIFSRRATLDTKTPVFDVADVDKHADDVDVLFLCMGSATDIPEQAPKFAQFACTVDTYDNHRDIPRHRQVMNEAATAAGNVALVSTGWDPGMFSINRVYAAAVLAEHQQHTFWGPGLSQGHSDALRRIPGVQKAVQYTLPSEDALEKARRGEAGDLTGKQTHKRQCFVVADAADHERIENDIRTMPDYFVGYEVEVNFIDEATFDSEHTGMPHGGHVITTGDTGGFNHTVEYILKLDRNPDFTASSQIAFGRAAHRMKQQGQSGAFTVLEVAPYLLSPENLDDLIARDV,soluble
6,MSLFTCEDPAVWKAVHNKYWTVVEAKSAGKRKTSGKLLQLDKWFQEDLPAAITARPERFLTHAELVKIMEWKLTKGKFRPRLQQLIGSNNEEAVQSSSSKAFSLLPDVQAAIKELCKLKGVGSATASAVLVAGAPDKVAFMADEAVESIAELRPVEYTDKHYALYLQKMLWKTSELNKVDAQQDWTPHRVEQCLWTWTVANQIQPSLLQGVSLKDATNQKPEKRKTADEKPSKRKKTE,not soluble
7,GAMVETKCPNLDIVTSSGEFHCSGCVEHMPEFSYMYWLAKDMKSDEDTKFIEHLGDGINEDETVRTTDGGITTLRKVLHVTDTNKFAHYRFTCVLTTLDGVSKKNIWLK,soluble
8,MPQIQSSHSNHFDFTIDTADRTKLLMSYLVVPTTANFNNVMHGGELLNLLDKVAYVCSTRYCAKGTVTLSVDGVTFKYPIPVGNLLTFLASINYVGNTSCEVGIKVLSEDIKTREITHTNSCYFTMVAVENGKPTPMPKYEPKTEVEIRRYEGALKRKEMRTRGYLKSGKHEGVLEHHHHHH,not soluble
9,MGSDKIHHHHHHACDGKVYKKGDKIMFGVPKVSGYLFVRTFTKDGKISTMPKENLASQEAVIVDIPDYDKKLFEGMGVYSEVETHPLVVVELDGRRLCININDALSQGNIVSEYFKSEVEGMVDLTSDLLFVYALKLNNVTVDDDVIVRYMAHCDKNLVEKNQADPFTMADLKKEYAAKLEKALGDVDFSKVFRIESQSEMLQYDMDKQIFPLKGLWCPQIKTDQPDALAKIGFCKWDDCVFRFVNIPEFMNVPCETARAKGFYDMRKVGKVPTYNTPLATSYTYIRFLDKKVQLPEKKNKVYHNGDIKSMSLADLYGKMAIEAQIIKMDVYHLPFLKISDFELFYNYLGSIEVK,not soluble
10,MIINLVKQLGTTRGYITLWTGIDSAIAALAVQGIASHRTQQYIDEYYPNIGGPLLNQDKEEDELTDAESFRRVIRNGFRDSVIRVVAVTAARPFAVCFARQVAQVIGNETKYTTCAQALAVIGKQEGPGGLFSGLAPQIVGELLVIWGVHLITHGIQRAILRIEFGDTKNKDETKAKAAKDVHKFIHTAVPFLVNSFGYPYSVVSTVMAVAGSGLAVSFLPYSPSFNNWHGAWDYLRPIGLKRGNRLFLREQVGAVTVGVDQQLYASNSYFA,not soluble
11,GSSHHHHHHSSGLVPRGSHMSVQNVVLFDTQPLTLMLGGKLSYINVAYQTYGTLNDEKNNAVLICHALTGDAEPYFDDGRDGWWQNFMGAGLALDTDRYFFISSNVLGGCKGTTGPSSINPQTGKPYGSQFPNIVVQDIVKVQKALLEHLGISHLKAIIGGSFGGMQANQWAIDYPDFMDNIVNLCSSIYFSAEAIGFNHVMRQAVINDPNFNGGDYYEGTPPDQGLSIARMLGMLTYRTDLQLAKAFGRATKSDGSFWGDYFQVESYLSYQGKKFLERFDANSYLHLLRALDMYDPSLGYENVKEALSRIKARYTLVSVTTDQLFKPIDLYKSKQLLEQSGVDLHFYEFPSDYGHDAFLVDYDQFEKRIRDGLAGN,soluble
12,LKDVLNILLMDEISKLKDFLSNLDYIKPKVNIEEEIIEIRKEDIINALKLFKGKYEIEVDKIPKAVYVYLVKKNILFLYPQRGTLKPQSFLVWNAIKRVL,soluble
13,GSHMKNSVSVDLPGEMKVLVSKEKNKDGKYDLIATVDKLELKGTSDKNNGSGVLEGVKADKSKVKLTISDDLGQTTLEVFKEDGKTLVSKKVTSKDKSSTEEKFNEKGELSEKKITRADKSSTEEKFNEKGELSEKKITRADKSSTEEKFNEKGELSEKKITRADKSSTEEKFNEKGELSEKKITRADKSSTEEKFNEKGELSEKKITRADKSSTEEKFNEKGEVSEKIITRADGTRLEYTGIKSDGSGKAKEVLKGYVLEGTLTAEKTTLVVKEGTVTLSKNISKSGEVSVELNDTDSSAATKKTAAWNSGTSTLTITVNSKKTKDLVFTKENTITVQQYDSNGTKLEGSAVEITKLDEIKNALK,soluble
14,MGSDKIHHHHHHMLSTANITMQFGAKPLFENVSVKFGEGNRYGLIGANGCGKSTFMKILGGDLEPTSGQVMKDATTRLGKLSQDQFAFESERVIDTVIMGNTELWEVAAERERIYSQTEMSEEDGMKVADLEVRYAELDGYTAEARAGELLLGLGIPLVQHTQPMSVVAPGWKLRVLLAQALFSDPDVLLLDEPTNHLDINTIRWLEEILRSRSSTMLIISHDRHFLNRVCTHMADLDYGELTLFPGNYDEYMTAATQARERLHADNAKKKAEIAELQQFVSRFSANASKAKQATSRQRKIDKIQLDEVKPSSRVSPFIRFEQTKKIHRHALNAEKLSKAWGDNVLFERFDLQVEAGERVAIIGPNGIGKTTLLNCLVGTMTPDAGEVKWTDAAEVGYFAQDHADDFEGGETLFEWMRQWTTEGEQTVRGALGRMLFSNDDIGKSVKVISGGEQGRMLFGKLALQKPNVLVMDEPTNHLDMESIEALNLALENYPGTLIFVSHDREFVGSLATRIIELKDDDIVDFSGSYDDYLRSQSIYD,not soluble
15,MYKIVSDSACDLSKEYLEKHDVTIVPLSVSFDGETYYRDGVDITRDECYQRMVDDPKLFPKTSLPSVESYADVFRSFVEQGFPVVCFTITTLFSGSYNSAINAKSLVLEDYPDANICVIDSKQNTVTQALLIDQFVRMLEDGLSFEQAMSKLDALMASARIFFTVGSLDYLKMGGRIGKVATAATGKLGVKPVIIMKDGDIGLGGIGRNRNKLKNSVLQVAKKYLDENNKDNFIVSVGYGYDKEEGFEFMKEVESTLDVKLDSETNVAIGIVSAVHTGPYPIGLGVIRKYETL,soluble
16,MARAIWKGAISFGLVHIPVALVSATTSNSVDFDWLDKRSMDPVGYKRINKVTGKEVTKENIVKGVLHEKDRYVVLSEEEIRSAHPKSTQTIDIFAFVDSQQIPLQNIDTPYFLTPDKRGEKVYALLRETLVDTQKVALANVVLHTREHLAAVMPLESALVMVILRWPADVRELDALELTEAVTDARLTKSERDMARRLVKDMSADWQPDQYHDTFQEKIMQLVQTKAGEGKIEDVETDPGEEERKSADVIDLTDLLRRSLAGKSSASKTRKPAAKDKVADKQSPKPKRPAVRKKTGKAS,not soluble
17,INPPQHKQFQNLMPMQPRRYPEGKVLPDREREFPNTFPEHSSPLLLPKQELDMRWRGPHPLPGY,not soluble
18,MSLQQYEILLDSGTNELEIVKFGVGENAFGINVMKVREIIQPVEVTSVPHSHQHVEGMIKLRGEILPVISLFSFFGVEPEGSKDEKYIVTEFNKRKIVFHVGSVSQIHRVSWEAIEKPTSLNQGMERHLTGIIKLEDLMIFLPDYEKIIYDIESDSGVDTYNMHTEGFDERRTDKKLIIVEDSPLLMRLLQDELKEAGYNNIASFENGKEAYEYIMNLAENETDLSKQIDMIITDIEMPKMDGHRLTKLLKENPKSSDVPVMIFSSLITDDLRHRGEVVGADEQISKPEISDLIKKVDTYVIEGHHHHHH,soluble
19,MGSSHHHHHHSSGLVPRGSHMEEDGGIIRRIQTRGEGYAKPNEGAIVEVALEGYYKDKLFDQRELRFEIGEGENLDLPYGLERAIQRMEKGEHSIVYLKPSYAFGSVGKEKFQIPPNAELKYELHLKSFEKAKESWEMNSEEKLEQSTIVKERGTVYFKEGKYKQALLQYKKIVSWLEYESSFSNEEAQKAQALRLASHLNLAMCHLKLQAFSAAIESCNKALELDSNNEKGLSRRGEAHLAVNDFELARADFQKVLQLYPNNKAAKTQLAVCQQRIRRQLAREKKLYANMFERLAEEENKAKAEASSGDHPTDTEMKEEQKSNTAGSQSQVETEA,soluble
20,MSLEKQKGLAIITGASQGIGAVIAAGLATDGYRVVLIARSKQNLEKVHDEIMRSNKHVQEPIVLPLDITDCTKADTEIKDIHQKYGAVDILVNAAAMFMDGSLSEPVDNFRKIMEINVIAQYGILKTVTEIMKVQKNGYIFNVASRAAKYGFADGGIYGSTKFALLGLAESLYRELAPLGIRVTTLCPGWVNTDMAKKAGTPFKDEEMIQPDDLLNTIRCLLNLSENVCIKDIVFEMKKSIIEGHHHHHH,soluble
21,MAYDLWYWDGIPGRGEFVRLALEAGKIPYRDRAREPGEDMLADMRRRRDTAPFAPPYLVADGMTIAQTANILLFLGVEHGLAPPDRAGRLWVNQLQLTIADLTAEAHDVHHPVAAGLYYEDQQDVALRRAADFRETRMPKFMQYFEQALDRPGGWLTDMGRWSYADLSLYHVVEGLLHAFPRRMRTLMHRYPRLMTLHARVAELPELRGYLASDRRLPFGDGIFRHYPELDGA,not soluble
